# Patent US6541208B1, “Diagnostic method for distinguishing HIV-associated dementia from other forms of dementia” (University of Maryland Biotechnology Institute, priority 1998, dated 2003)
# Entries after “also recorded” stand apart in the source; their conditions may differ.
# B1: Tat1-86: Tat1-86 (Intracel), HIV-1 Tat protein (protein, UniProt P04608 1-86, looked up)
# chain: MEPVDPRLEPWKHPGSQPKTACTNCYCKKCCFHCQVCFITKALGISYGRKKRRQRRRAHQNSQTHQASLSKQPTSQPRGDPTGPKE
# modifications: full-length
# notes: Tat1-86 (Intracel), HIV-1 Tat protein
# B2: Tat: Highly purified recombinant Tat1-72, HIV-1 encoded transactivator protein (protein, UniProt P04608 1-72, looked up, fragment)
# chain: MEPVDPRLEPWKHPGSQPKTACTNCYCKKCCFHCQVCFITKALGISYGRKKRRQRRRAHQNSQTHQASLSKQ
# Tests used:
# [1] = tested on: astrocytic MCP-1 expression; test: Northern blot analysis of MCP-1 RNA in stimulated human astrocytes; type: cell-based
# Description: FIG. 1A—Total RNA was extracted from T lymphoblastoid HUT 78 cells (ATCC), and from variously treated human astrocytes. Ten μg per lane were then run on a 1% agarose-6% formaldehyde gel. Following transfer of RNA to nitrocellulose, the blot was probed with the full-length cDNA for MCP-1, and subsequently, RANTES. RNA from untreated astrocytes was run in lanes 2 and 4. […] Astrocytic expression of RANTES was not detected.
# FIG. 1B—Similar experience except that RNA from HUT 78 cells (lane 1) was compared to RNA from astrocytes that were unstimulated (lane 2) or stimulated for 2 hr with 100 nM Tat (lane 3), 25 μM TPCK followed by 100 nM Tat (lane 4) or 25 μM TPCK (lane 5).
# Brain tissue from 12-14 wk human fetuses was obtained in accordance with NIH guidelines. The tissue was mechanically disrupted by aspiration through a 19-gauge needle, washed in Eagle's minimal essential medium (EMEM) and then distributed into tissue culture flasks. Cells were maintained in EMEM containing 10% fetal bovine serum, 2 mM L-glutamine and 5 μg/ml gentamicin. Several days later, flasks were placed into an orbital incubator shaker at 37° C. and 210 rpm for 6 hr. Non-adherent cells were removed. A portion of the adherent cells were later stained with an antibody to glial fibrallary acidic protein and only those cultures which were >95% positive were used. […]
# [2] = tested on: astrocytic release of RANTES, MIP-1α and MIP-1β; test: ELISA detection of RANTES, MIP-1α and MIP-1β in astrocyte supernatants; type: cell-based, human; conditions: Tat treated astrocytes; ELISA detection limit 10 pg/ml
# Description: MIP1-1α, MIP-1β and RANTES were detected by ELISA (R&D Systems). These ELISAs could detect concentrations as low as 10 pg/ml. Protein measurements were determined by comparison to a standard curve, run in duplicate with each assay.
# (§1) To determine whether increased expression of MCP-1 would correlate with increased protein synthesis or release, we next analyzed the supernatants of Tat treated astrocytes by ELISA and Western blot. […] This increase was specific in that astrocytic release of RANTES, MIP-1α and MIP-1β was not observed.
# [3] = tested on: astrocytic release of MCP-1; test: Immunoassay (ELISA) and Western blot of MCP-1 in astrocyte supernatants; type: cell-based, human
# Description: FIG. 2A—Astrocytes were grown to near confluency in […]. Each well contained 10^6 cells in 1 ml medium. Medium was then changed and astrocytes were stimulated with exogenous Tat in doses ranging from 0.01 to 1.0 μM. Twenty hr later, samples were taken for analysis by immunoassay (R&D Systems). […] Data are shown as means +S.E. for three replicates.
# FIG. 2B—Similar experiment except that astrocytes were stimulated with 100 nM Tat or with an equivalent amount of Tat that had first been either digested with tripsin (Tat-tr) or immunoabsorbed (Tat-im).
# FIG. 3—Western blot analysis of MCP-1 in astrocyte supernatants. In lanes 2-7, 50 μg of protein from variously treated astrocyte supernatants were run on a 15% Tris/Glycine denaturing gel. Three ng of non-glycosylated recombinant MCP-1 (R&D Systems) were run in lane 1 as a control. Following protein transfer to nitrocellulose, the blot was probed with a polyclonal antibody with recognized human MCP-1 (R&D Systems). After washing, an appropriate secondary antibody was applied (horse radish peroxidase conjugated anti-goat, [Santa-Cruz Biotechnology]) and electrochemilurninescence (Amersham) was used to visualize the bands. […] The lower arrow represents a band, which runs with an apparent molecular mass of 9 kDa while the upper band, of slighter high molecular mass, is likely to represent MCP-1, which has been altered by the addition of O-linked carbohydrates. Both forms of MCP-1 are active in vitro.
# Astrocytes (10^6 per 1 ml medium) were stimulated with 100 nM HIV-1IIIB gp41 (Intracel) or 100 nM HIV-1IIB gp 120 (Intracel), and supernantants were assessed 24 hr. later by immunoassay (R&D Systems).
# Trypsin digestion of Tat was performed by the addition of 25 μl of 0.25% trypsin per μg of Tat. The mixture was then incubated for 4 hr. before the 1:1 addition of soybean tripsin inhibitor (Sigma).
# Immunoabsorption of Tat was performed as described previously by Magnusson et al. (1995). Briefly, a Tat specific monoclonal antibody (Intracel) was bound to protein A-sepharose (Pharmacia), washed, and then incubated with Tat for 60 min at room temperature, followed by centrifugation.
# as §1
# astrocytes = test: Astrocyte proliferation assay (tritiated thymidine); type: cell-based, human; conditions: Tat 10-1000 nM, twenty hr after administration
# Description: Astrocytes were grown in 96 well plates. At 70% confluency, cells were treated with varying concentrations of exogenous Tat, in media, which contained 1 μCi per well of tritiated thymidine (New England Nuclear). […] Filters were then dried and placed into scintillation fluid for counting in a Betaplate Apparatus.
Molecule,"ability to increase astrocytic expression of MCP-1, compared with Tat1-72 ([1]; Tat1-86 (Intracel) versus recombinant Tat1-72)","astrocytic MCP-1 expression (MCP-1 encoding RNA) ([1]; 100 nM Tat, 2 or 4 hr stimulation, human astrocytes)","astrocytic release of RANTES, MIP-1α and MIP-1β [2]",release of MCP-1 after pre-treatment of Tat with trypsin ([3]; 100 nM equivalent of Tat digested with trypsin (Tat-tr)),release of MCP-1 after immunoabsorption of Tat with a specific antibody ([3]; 100 nM equivalent of immunoabsorbed Tat (Tat-im)),"astrocytic release of MCP-1 ([3]; Tat 0.01 to 1.0 μM, 20 hr, 10^6 cells in 1 ml medium)",concentrations of Tat sufficient to increase astrocytic MCP-1 release ([3]; human astrocytes),astrocyte proliferation (astrocytes)
B1,similar,–,–,–,–,–,–,–
B2,–,increase in astrocytic MCP-1 expression; also recorded: increase in MCP-1 encoding RNA as early as 2 hr,not observed,could be inhibited,could be inhibited,significant increase in MCP-1 release; also recorded: dose-dependent increase in astrocytic release of MCP-1,low nanomolar,no measurable increase in astrocyte proliferation
